# According to publication PMC7683268:
# Biological target: N-terminally MBP-fused and C-terminally mCherry-fused C-terminal intracellular region of Lrp5 (zebrafish)
# Assay: bead binding assay read by EGFP fluorescence microscopy
substance,measurement,value
N-terminally GST-fused and C-terminally EGFP-fused RBP1a (natural protein),EGFP signal on beads,5.3
